Experimental data reported in patent US20200407452A1 (published 2020).

B1: 76G7 chimeric llama-human IgG1 mAb (antibody, V domains shown)
VH: QVQLVESGGNLVQPGGSLRLSCAASGFTFSNYYMSWVRQAPGKGLEWVSDIYSDGSTTWYSDSVKGRFTISRDNAKNTLSLQMNSLKSEDTAVYYCARVKIYPGGYDAWGQGTQVTVSS
VL: QAGLTQPPSVSGSPGKTVTISCAGNSSDVGYGNYVSWYQQFPGMAPKLLIYLVNKRASGITDRFSGSKSGNTASLTISGLQSEDEADYYCASYTGSNNIVFGGGTHLTVL
notes: human IgG1 CH1-CH2-CH3 and human CL lambda
B2: 71G12 chimeric llama-human IgG1 mAb (antibody, V domains shown)
VH: QVQLQESGGDLVQPGGSLRVSCVVSGFTFSRYYMSWVRQAPGKGLEWVSSIDSYGYSTYYTDSVKGRFTISRDNAKNTLYLQMNSLKPEDTALYYCARAKTTWSYDYWGQGTQVTVSS
VL: EIVLTQSPSSVTASVGGKVTINCKSSQSVFIASNQKTYLNWYQQRPGQSPRLVISYASTRESGIPDRFSGSGSTTDFTLTISSVQPEDAAVYYCQQAYSHPTFGQGTKVELK
notes: human IgG1 CH1-CH2-CH3 and human CL kappa
B3: 74C8 chimeric llama-human IgG1 mAb (antibody, V domains shown)
VH: EVQLVESGGGLVQPGGSLRLSCAASGFTFRNYHMSWVRQVPGKGFEWISDINSAGGSTYYADSVKGRFTISRDNAKNTLYLEMNSLKPEDTALYYCARVNVWGVNYWGKGTLVSVSS
VL: QTVVTQEPSLSVSPGGTVTLTCGLSSGSVTTSNYPGWFQQTPGQAPRTLIYNTNSRHSGVPSRFSGSISGNKAALTITGAQPEDEADYYCSLYPGSYTNVFGGGTHLTVL
notes: as for B1
B4: recombinant mouse HGF (R&D Systems) (ligand, UniProt Q08048 33-728, looked up)
chain: QKKRRNTLHEFKKSAKTTLTKEDPLLKIKTKKVNSADECANRCIRNRGFTFTCKAFVFDKSRKRCYWYPFNSMSSGVKKGFGHEFDLYENKDYIRNCIIGKGGSYKGTVSITKSGIKCQPWNSMIPHEHSFLPSSYRGKDLQENYCRNPRGEEGGPWCFTSNPEVRYEVCDIPQCSEVECMTCNGESYRGPMDHTESGKTCQRWDQQTPHRHKFLPERYPDKGFDDNYCRNPDGKPRPWCYTLDPDTPWEYCAIKTCAHSAVNETDVPMETTECIQGQGEGYRGTSNTIWNGIPCQRWDSQYPHKHDITPENFKCKDLRENYCRNPDGAESPWCFTTDPNIRVGYCSQIPKCDVSSGQDCYRGNGKNYMGNLSKTRSGLTCSMWDKNMEDLHRHIFWEPDASKLNKNYCRNPDDDAHGPWCYTGNPLIPWDYCPISRCEGDTTPTIVNLDHPVISCAKTKQLRVVNGIPTQTTVGWMVSLKYRNKHICGGSLIKESWVLTARQCFPARNKDLKDYEAWLGIHDVHERGEEKRKQILNISQLVYGPEGSDLVLLKLARPAILDNFVSTIDLPSYGCTIPEKTTCSIYGWGYTGLINADGLLRVAHLYIMGNEKCSQHHQGKVTLNESELCAGAEKIGSGPCEGDYGGPLICEQHKMRMVLGVIVPGRGCAIPNRPGIFVRVAYYAKWIHKVILTYKL
modifications: biotinylated at the N-terminus using NHS-LC-biotin (in the competition ELISA only)

What was measured:
[1] = molecular target: T1, native human MET on living cells (human, UniProt P08581 25-1390); test: cell-based or functional assay
[2] = molecular target: T2, native mouse MET on living cells (mouse, UniProt P16056 25-1379); test: cell-based or functional assay
[3] = molecular target: T1, native human MET on living cells; test: cell-based or functional assay; remark: listed apart in the source
[4] = molecular target: T2, native mouse MET on living cells; test: cell-based or functional assay; remark: listed apart in the source
human MET ECD = molecular target: T3, human MET ECD (human, UniProt P08581 25-932); test: ELISA, MET ECD coated, mAb 0-20 nM
T3 construct: range 1-932; recombinant; range as printed includes the signal peptide; also called hMET; hMET ECD
Experimental: (§1) Production (by transient transfection of mammalian cells) and purification (by protein A affinity chromatography) of the resulting chimeric llama-human IgG1 molecules was outsourced to U-protein Express. Binding of chimeric mAbs to MET was determined by ELISA using hMET or mMET ECD in solid phase and increasing concentrations of antibodies (0-20 nM) in solution. […] Binding capacity (EMAX) varied from antibody to antibody, possibly due to partial epitope exposure in the immobilized antigen, but was similar in the human and mouse setting.

mouse MET ECD = molecular target: T4, mouse MET ECD (mouse, UniProt P16056 25-931); test: ELISA, MET ECD coated, mAb 0-20 nM
T4 construct: range 1-931; recombinant; range as printed includes the signal peptide; also called mMET; mMET ECD
Experimental: as §1

T3 sequence (P08581 25-932 limits assumed, form in doubt): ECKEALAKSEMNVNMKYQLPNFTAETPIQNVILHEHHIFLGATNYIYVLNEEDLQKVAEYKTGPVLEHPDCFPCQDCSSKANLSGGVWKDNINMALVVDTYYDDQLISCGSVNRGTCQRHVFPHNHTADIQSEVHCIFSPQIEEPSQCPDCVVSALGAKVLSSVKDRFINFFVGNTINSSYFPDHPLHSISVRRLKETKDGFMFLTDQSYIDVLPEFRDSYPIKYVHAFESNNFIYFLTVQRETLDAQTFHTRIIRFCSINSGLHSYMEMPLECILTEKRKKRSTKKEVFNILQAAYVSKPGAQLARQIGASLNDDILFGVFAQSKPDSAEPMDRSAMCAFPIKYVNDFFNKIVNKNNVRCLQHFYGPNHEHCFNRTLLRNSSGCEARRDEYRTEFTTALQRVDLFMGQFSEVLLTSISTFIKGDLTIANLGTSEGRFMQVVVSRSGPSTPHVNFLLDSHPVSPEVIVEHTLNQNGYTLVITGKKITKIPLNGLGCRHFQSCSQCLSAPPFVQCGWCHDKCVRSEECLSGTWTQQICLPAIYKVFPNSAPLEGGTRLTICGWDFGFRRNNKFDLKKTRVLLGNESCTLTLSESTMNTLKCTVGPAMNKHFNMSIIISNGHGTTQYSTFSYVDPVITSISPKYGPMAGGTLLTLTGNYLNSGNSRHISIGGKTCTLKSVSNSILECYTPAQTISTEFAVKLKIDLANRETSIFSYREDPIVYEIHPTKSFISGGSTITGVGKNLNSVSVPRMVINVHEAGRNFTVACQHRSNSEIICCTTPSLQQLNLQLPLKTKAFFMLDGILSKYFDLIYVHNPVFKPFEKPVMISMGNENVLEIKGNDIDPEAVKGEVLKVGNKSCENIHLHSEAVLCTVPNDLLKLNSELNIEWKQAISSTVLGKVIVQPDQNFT
T1 sequence (P08581 25-1390): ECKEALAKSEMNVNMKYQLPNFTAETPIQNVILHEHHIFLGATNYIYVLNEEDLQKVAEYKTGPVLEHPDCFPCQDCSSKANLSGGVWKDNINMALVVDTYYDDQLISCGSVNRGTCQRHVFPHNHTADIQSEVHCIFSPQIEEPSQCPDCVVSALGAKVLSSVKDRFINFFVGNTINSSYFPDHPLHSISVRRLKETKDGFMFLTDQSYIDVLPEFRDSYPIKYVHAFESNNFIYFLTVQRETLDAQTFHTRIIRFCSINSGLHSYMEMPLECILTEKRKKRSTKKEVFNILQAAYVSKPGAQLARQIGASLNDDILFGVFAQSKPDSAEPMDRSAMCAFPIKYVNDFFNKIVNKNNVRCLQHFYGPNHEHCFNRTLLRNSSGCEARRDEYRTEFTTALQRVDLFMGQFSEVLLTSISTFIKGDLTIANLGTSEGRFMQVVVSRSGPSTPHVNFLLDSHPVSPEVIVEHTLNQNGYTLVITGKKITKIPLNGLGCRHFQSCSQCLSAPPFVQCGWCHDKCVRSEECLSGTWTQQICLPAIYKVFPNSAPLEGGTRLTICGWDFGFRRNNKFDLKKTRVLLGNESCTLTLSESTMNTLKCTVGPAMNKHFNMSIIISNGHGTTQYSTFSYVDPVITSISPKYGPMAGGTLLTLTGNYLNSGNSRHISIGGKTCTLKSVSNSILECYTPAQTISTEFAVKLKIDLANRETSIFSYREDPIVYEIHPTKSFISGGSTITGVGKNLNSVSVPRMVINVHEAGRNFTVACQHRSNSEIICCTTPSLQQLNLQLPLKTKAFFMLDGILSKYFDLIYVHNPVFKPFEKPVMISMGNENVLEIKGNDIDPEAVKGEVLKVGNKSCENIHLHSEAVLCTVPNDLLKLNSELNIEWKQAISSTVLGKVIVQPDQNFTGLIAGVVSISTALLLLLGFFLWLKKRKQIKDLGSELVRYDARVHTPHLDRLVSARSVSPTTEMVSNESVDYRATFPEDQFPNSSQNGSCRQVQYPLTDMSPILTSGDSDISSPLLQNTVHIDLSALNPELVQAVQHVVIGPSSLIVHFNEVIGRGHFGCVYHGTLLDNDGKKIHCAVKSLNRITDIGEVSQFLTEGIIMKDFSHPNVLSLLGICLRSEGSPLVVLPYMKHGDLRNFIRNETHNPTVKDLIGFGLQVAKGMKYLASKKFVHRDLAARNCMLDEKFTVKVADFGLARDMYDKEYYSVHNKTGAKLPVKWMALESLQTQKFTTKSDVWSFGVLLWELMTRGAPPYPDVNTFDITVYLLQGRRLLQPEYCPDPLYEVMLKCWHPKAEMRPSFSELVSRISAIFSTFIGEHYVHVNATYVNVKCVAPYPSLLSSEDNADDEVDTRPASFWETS

Binder | phospho-MET ELISA EMAX, A549 cells [1] [% HGF activity] | phospho-MET ELISA EMAX, MLP29 cells [2] [% HGF activity] | protection from staurosporine-induced apoptosis EC50, MCF10A cells [3] [nM] | protection from staurosporine-induced apoptosis EMAX, MCF10A cells [3] [%] | protection from staurosporine-induced apoptosis EC50, MLP29 cells [4] [nM] | protection from staurosporine-induced apoptosis EMAX, MLP29 cells [4] [%] | EMAX (human MET ECD) [OD450 AU] | EMAX (mouse MET ECD) [OD450 AU]
B1 | 62.3 | 71.5 | 25.4 | 51.9 | 30.1 | 50.2 | 2.62 | 2.78
B2 | 70.6 | 75.4 | > 32 | 39.4 | > 32 | 39.7 | 3.08 | 2.97
B3 | 87.6 | 102 | > 32 | 41.7 | > 32 | 37.5 | 0.994 | 0.896
B4 |  | 100 |  |  | 5.35 | 58.6 |  | 
